± gives the uncertainty stated by the source.
Assay: protein stability index of a GFP-peptide fusion (yeast GPS) (PSI 1-4); higher = more stable; sorted into four equal gates, so the index is relative within each strain
How it was run: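 The protein stability index combines read frequencies across sorting gates, each weighted by its gate number and then summed. To obtain those frequencies, a pooled yeast library of GFP fusions to tiled 17-residue yeast protein peptides, on a plasmid also expressing Cherry, was grown to mid-log phase in leucine-free medium. The cells were sorted into four equal gates by GFP/Cherry ratio before plasmid amplification by PCR and Illumina sequencing.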

Sequence | protein stability index (doa10∆) | protein stability index (pdr5∆) | protein stability index (san1∆) | protein stability index (ubr1∆)
IVHDDPASDDILDNINH [ITC1] | 2.98 ± 0.072 | 3.02 ± 0.062 | 3.04 ± 0.09 | 3.25 ± 0.058
TFIYGYCDKNFRENMSK [PRE3] | 2.12 ± 0.079 | 2.17 ± 0.066 | 2.21 ± 0.092 | 2.65 ± 0.053
PHANPITHAHSLSNPNS [PGD1] | 2.87 ± 0.046 | 2.99 ± 0.045 | 2.77 ± 0.038 | 2.94 ± 0.03
LITTYSKLSKNISFYKL [SIN4] | 2.18 ± 0.16 | 2.47 ± 0.12 | 2.24 ± 0.11 | 2.69 ± 0.072
AGIVPVSANTPKSLNSN [SWI1] | 3.07 ± 0.059 | 3.04 ± 0.066 | 3.04 ± 0.048 | 3.22 ± 0.043
LDPLEVHMLDFPNIAIR [PRP8] | 2.74 ± 0.059 | 2.79 ± 0.056 | 2.84 ± 0.051 | 2.88 ± 0.043
ASKSGKLTQKLVTAGVA [CYT1] | 1.85 ± 0.068 | 1.83 ± 0.057 | 2.45 ± 0.062 | 1.95 ± 0.048
NSAVNNAISNTQDDFTT [SRP54] | 3.42 ± 0.1 | 3.07 ± 0.07 | 3.04 ± 0.064 | 3.31 ± 0.045
AKINEVYNNSKDEYLAQ [NSL1] | 2.83 ± 0.047 | 3.06 ± 0.043 | 2.77 ± 0.048 | 2.75 ± 0.037
FNGIENQSAYEWNGKSF [ISW2] | 3.09 ± 0.12 | 3.25 ± 0.2 | 3.31 ± 0.076 | 3.22 ± 0.12
NSKPVELKPVSLDNKTL [YJL041W/NSP1] | 2.8 ± 0.055 | 2.75 ± 0.059 | 2.69 ± 0.076 | 2.58 ± 0.064
SGKSNILDAICFVLGIA [SMC2] | 1.85 ± 0.07 | 1.86 ± 0.087 | 2.25 ± 0.11 | 1.82 ± 0.066
NITFSEELVSLAVFLFD [YJL039C/NUP192] | – | – | 1.62 ± 0.28 | 1.66 ± 0.29
STVKKKDIVNISIPKTC [REC8] | 2.71 ± 0.088 | 2.41 ± 0.063 | 2.53 ± 0.084 | 2.62 ± 0.054
EALNLLKFFLVDENETV [LIN1] | 1.52 ± 0.06 | 1.52 ± 0.043 | 1.4 ± 0.12 | 1.14 ± 0.054
TSKMNLSEDVNLETLVT [RPT2] | 2.6 ± 0.14 | 2.85 ± 0.16 | 2.62 ± 0.15 | 2.78 ± 0.11
VSFNGFKLPKKFPPPTP [BRR2] | 2.57 ± 0.07 | 2.9 ± 0.067 | 2.8 ± 0.06 | 2.93 ± 0.052
NSNKQAVAILADDEKSD [BRR2] | 3.04 ± 0.091 | 3.07 ± 0.071 | 3.03 ± 0.086 | 2.88 ± 0.044
PGVDVSAEEQLRKIDML [SRB7] | 2.9 ± 0.084 | 2.61 ± 0.061 | 2.31 ± 0.072 | 2.67 ± 0.043
MANIPERIINVGVIGPL [SNU114] | 2.18 ± 0.28 | 2.79 ± 0.16 | – | 3.07 ± 0.077
DSVEFIFQAKRNSNPEN [RPN10] | 2.75 ± 0.087 | 2.73 ± 0.089 | 3.2 ± 0.12 | 2.69 ± 0.083
KETQQYELEFDTPTSGK [BRR2] | 2.99 ± 0.05 | 2.98 ± 0.055 | 3.05 ± 0.041 | 3.08 ± 0.045
AVAASSTKTGTPSDLSE [POP1] | 3.3 ± 0.084 | 3.26 ± 0.077 | 3.41 ± 0.045 | 3.33 ± 0.035
VLEKYEVIGYIAAGTYG [SSN3] | 1.34 ± 0.088 | 1.55 ± 0.14 | – | 1.28 ± 0.075
TGEKPIITGSTSTSSSN [MED8] | 2.79 ± 0.048 | 2.52 ± 0.04 | 2.57 ± 0.044 | 2.37 ± 0.033
VPAVVDDPLENMFGDYS [SNF6] | 3.09 ± 0.14 | 3.48 ± 0.12 | 2.85 ± 0.17 | 3.35 ± 0.11

Sequence | protein stability index (doa10∆) | protein stability index (pdr5∆) | protein stability index (san1∆) | protein stability index (ubr1∆)
ATFSVSQASSDLGETFR [CSL4] | 3.04 ± 0.086 | 2.64 ± 0.064 | 3.23 ± 0.065 | 2.57 ± 0.041
TDKKAFLGALKYLPHAI [PRP8] | 2.94 ± 0.12 | 2.92 ± 0.097 | 3.19 ± 0.072 | 2.96 ± 0.054
DVSVKMGNTKVHCRISC [RRP45] | 2.21 ± 0.14 | 2.28 ± 0.092 | 2.17 ± 0.061 | 2.09 ± 0.074
TFHHHGRQTVLIKDNSA [SRB2] | 1.92 ± 0.25 | 2.52 ± 0.21 | – | 2.56 ± 0.24
DEDEDEDEDDDDDDDED [QCR6] | 2.25 ± 0.039 | 1.96 ± 0.036 | 2.05 ± 0.047 | 1.98 ± 0.05
EFQPSGNVTELYGTAIG [PRE5] | 2.15 ± 0.069 | 2.8 ± 0.07 | 1.98 ± 0.067 | 1.57 ± 0.041
KKRRGSRIYKTIKVAGT [SNU114] | 1.6 ± 0.042 | 1.78 ± 0.045 | 1.61 ± 0.069 | 1.8 ± 0.043
LSSDEKRELLKRYRLKE [RPB5] | 3.08 ± 0.2 | 3.27 ± 0.17 | – | 3.52 ± 0.14
INMADRSLGLQQVVCIF [POP6] | 1.39 ± 0.093 | 1.3 ± 0.11 | 1.4 ± 0.15 | 1.06 ± 0.11
LPENIILTSLMRSKLEK [CSN9] | 2.38 ± 0.084 | 3.05 ± 0.063 | 2.78 ± 0.061 | 2.7 ± 0.048
DANPSSQIIARNEEILR [SMC2] | 2.94 ± 0.08 | 2.79 ± 0.083 | 3.21 ± 0.076 | 2.76 ± 0.11
KKASEISVSSRSDREYP [SRP14] | 3.19 ± 0.096 | 3.1 ± 0.12 | 2.99 ± 0.1 | 2.87 ± 0.082
LPVKWETTTQFKATHIL [FAS1] | 2.52 ± 0.06 | 2.32 ± 0.057 | 2.23 ± 0.063 | 2.34 ± 0.04
DAFNMLSLTTVPCDRIE [SNF6] | 2.18 ± 0.05 | 2.57 ± 0.064 | 2.43 ± 0.091 | 2.4 ± 0.069
MGPLSNIAQMIPGMSNM [SRP54] | 2.49 ± 0.049 | 2.75 ± 0.045 | 2.58 ± 0.048 | 2.69 ± 0.04
NVGELIEKNVMESIGSD [RRP4] | 2.54 ± 0.059 | 3.03 ± 0.075 | 2.62 ± 0.098 | 2.39 ± 0.065
YGMSITETFEKPQRTNT [RPB2] | 3.03 ± 0.14 | 3.35 ± 0.17 | 3.04 ± 0.12 | 3.12 ± 0.11
KRNSDKVEYKIVHDDPA [ITC1] | 2.12 ± 0.072 | 2.02 ± 0.083 | 1.95 ± 0.13 | 1.27 ± 0.053
DQRDELLEQKKSIINSQ [ITC1] | 3.08 ± 0.085 | 3.1 ± 0.075 | 3.11 ± 0.062 | 3.19 ± 0.068
LDLMFDEVYVQNSKFLK [YJL039C/NUP192] | 2.94 ± 0.066 | 2.94 ± 0.055 | 2.87 ± 0.071 | 2.87 ± 0.034
TTMFENTGWSCSRIIKI [RGR1] | 3.61 ± 0.2 | 3.45 ± 0.13 | 3.37 ± 0.11 | 3.51 ± 0.1
TVFFLIRVAETRGGASA [YJL039C/NUP192] | 2.18 ± 0.071 | 2.08 ± 0.074 | 2.76 ± 0.13 | 2.13 ± 0.047
KEKEKEREEAEKKRAEQ [MED2] | – | – | 2.75 ± 0.28 | –
DPKRLFEGNALIRRLVR [RPS9A] | – | 3.52 ± 0.28 | – | –
ESAAVYNGRGARERKTA [SNF2] | 2.55 ± 0.067 | 2.3 ± 0.057 | 2.76 ± 0.06 | 2.78 ± 0.06
